Reference: the supplement of paper PMC10567573

B1: TFE3 (parent)
chain: FPSDHLGDLGDPFHLGLEDILMEE

Variants of: B1
Experiment: protein stability index of a GFP-peptide fusion (GPS, HEK-293T) (PSI 1-6); higher = more stable
Settings: c terminus: a fixed tail appended
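Also: lentivirally expressed fusions sorted by FACS into six bins by GFP to DsRed ratio, PSI derived from sequencing read proportions per bin multiplied by bin number.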

| Variant | protein stability index |
| --- | --- |
| FPSDHLGDLGDPFLLGLEDILMEE | 3.38 |
| FPSDHLGDLGDPFGLGLEDILMEE | 4.14 |
| FPSDHLGDLGDPFVLGLEDILMEE | 3.04 |
| FPSDHLGDLGDPFYLGLEDILMEE | 3.32 |
| FPSDHLGDLGDPFILGLEDILMEE | 3.44 |
| FPSDHLGDLGDPYHLGLEDILMEE | 2.82 |
| FPSDHLGDLGDPNHLGLEDILMEE | 4.97 |
| FPSDHLGDLGDPGHLGLEDILMEE | 4.97 |
| FPSDHLGDLGDPDHLGLEDILMEE | 5.22 |
| FPSDHLGDLGDPPHLGLEDILMEE | 4.91 |
| FPSDHLGDLGDPRHLGLEDILMEE | 4.74 |
| FPSDHLGDLGDPFHGGLEDILMEE | 3.63 |
| FPSDHLGDLGDPFHCGLEDILMEE | 3.31 |
| FPSDHLGDLGDPFHQGLEDILMEE | 3.87 |
| FPSDHLGDLGDPFHYGLEDILMEE | 3.56 |
| FPSDHLGDLGDPFHWGLEDILMEE | 3.49 |
| FPSDHLGDLGDPFHKGLEDILMEE | 3.1 |
| FPSDHLGDLGDPFHLGLEDKLMEE | 4.05 |
| FPSDHLGDLGDPFHLGLEDNLMEE | 4.29 |
| FPSDHLGDLGDPFHLGLEDGLMEE | 4.16 |
| FPSDHLGDLGDPFHLGLEDHLMEE | 3.92 |
| FPSDHLGDLGDPFHLGLEDVLMEE | 3.48 |
| FPSDHLGDLGDPFHLGLEDFLMEE | 3.82 |
| FPSDHLGDLGDPFHLGLEDCLMEE | 3.84 |

| Variant | protein stability index |
| --- | --- |
| FPSDHLGDLGDPFHLGLEDYLMEE | 3.88 |
| FPSDHLGDLGDPFHLGLEDMLMEE | 3.63 |
| FPSDHLGDLGDPFHLGLEDLLMEE | 3.91 |
| FPSDHLGDLGDPFHLGLEDDLMEE | 4.26 |
| FPSDHLGDLGDPFHLGLYDILMEE | 2.1 |
| FPSDHLGDLGDPFHLGLQDILMEE | 2.89 |
| FPSDHLGDLGDPFHLGLLDILMEE | 1.98 |
| FPSDHLGDLGDPFHLGLFDILMEE | 1.91 |
| FPSDHLGDLGDPFHLGLVDILMEE | 3.22 |
| FPSDHLGDLGDPFHLGLSDILMEE | 3.51 |
| FPSDHLGDLGDPFHLGLTDILMEE | 2.72 |
| FPSDHLGDLGDPFHLGLDDILMEE | 3.87 |
| FPSDHLGDLGDPFHLGLCDILMEE | 2.18 |
| FPSDHLGDLGDPFHLGLEDILQEE | 3.75 |
| FPSDHLGDLGDPFHLGLEDILREE | 3.33 |
| FPSDHLGDLGDPFHLGLEDILKEE | 3.98 |
| FPSDHLGDLGDPFHLGLEDILYEE | 3.13 |
| FPSDHLGDLGDPFHLGLEDILDEE | 4.26 |
| FPSDHLGDLGDPFHLGLEDILVEE | 3.08 |
| FPSDHLGDLGDPFHLGLEDILFEE | 3.14 |
| FPSDHLGDLGDPFHLGLEDILAEE | 3.31 |
| FPSDHLGDLGDPFHLGLEDILLEE | 3.24 |
| FPSDHLGDLGDPFHLGLEDILIEE | 3.35 |
| FPSDHLGDLGDPFHLGLEDILCEE | 3.53 |

| Variant | protein stability index |
| --- | --- |
| FPSDHLGDLGDPFHLGLEDIFMEE | 3.28 |
| FPSDHLGDLGDPFHLGLEDIKMEE | 4.06 |
| FPSDHLGDLGDPFHLGLEDITMEE | 3.93 |
| FPSDHLGDLGDPFHLGLEDIPMEE | 4.18 |
| FPSDHLGDLGDPFHLGLEDIYMEE | 3.31 |
| FPSDHLGDLGDPFHLGLEDIRMEE | 3.78 |
| FPSDHLGDLGDPFHLGLEDIMMEE | 3.38 |
| FPSDHLGDLGDPFHLGLEDIAMEE | 4.03 |
| FPSDHLGELGDPFHLGLEDILMEE | 3.73 |
| FPSDHLGLLGDPFHLGLEDILMEE | 2.33 |
| FPSDHLGILGDPFHLGLEDILMEE | 3.03 |
| FPSDHLGYLGDPFHLGLEDILMEE | 2.14 |
| FPSDHLGKLGDPFHLGLEDILMEE | 2.42 |
| FPSDHLGFLGDPFHLGLEDILMEE | 2.52 |
| FPSDHLGDLGIPFHLGLEDILMEE | 3.23 |
| FPSDHLGDLGRPFHLGLEDILMEE | 3.72 |
| FPSDHLGDLGHPFHLGLEDILMEE | 2.27 |
| FPSDHLGDLGTPFHLGLEDILMEE | 2.92 |
| FPSDHLGDLGMPFHLGLEDILMEE | 3.08 |
| FPSDHLGDLGEPFHLGLEDILMEE | 4.24 |
| FPSDHLGDLGWPFHLGLEDILMEE | 1.89 |
| FPSDHLGDLGPPFHLGLEDILMEE | 3.87 |
| FPSDHLGDLGKPFHLGLEDILMEE | 3.42 |
| FPSDHLGDLGFPFHLGLEDILMEE | 2.66 |

| Variant | protein stability index |
| --- | --- |
| FPSDHLGDLGCPFHLGLEDILMEE | 2.74 |
| FPHDHLGDLGDPFHLGLEDILMEE | 2.91 |
| FPDDHLGDLGDPFHLGLEDILMEE | 4.07 |
| FPQDHLGDLGDPFHLGLEDILMEE | 3.57 |
| FPADHLGDLGDPFHLGLEDILMEE | 2.85 |
| FPYDHLGDLGDPFHLGLEDILMEE | 2.45 |
| FPNDHLGDLGDPFHLGLEDILMEE | 3.16 |
| FPWDHLGDLGDPFHLGLEDILMEE | 2.2 |
| FPKDHLGDLGDPFHLGLEDILMEE | 2.67 |
| FPMDHLGDLGDPFHLGLEDILMEE | 2.59 |
| FPRDHLGDLGDPFHLGLEDILMEE | 2.6 |
| FPSDHLGDLGDPFHLELEDILMEE | 3.96 |
| FPSDHLGDLGDPFHLRLEDILMEE | 2.7 |
| FPSDHLGDLGDPFHLPLEDILMEE | 3.35 |
| FPSDHLGDLGDPFHLFLEDILMEE | 2.16 |
| FPSDHLGDLGDPFHLWLEDILMEE | 1.85 |
| FPSDHLGDLGDPFHLNLEDILMEE | 3.34 |
| FPSDHKGDLGDPFHLGLEDILMEE | 3.22 |
| FPSDHAGDLGDPFHLGLEDILMEE | 3.69 |
| FPSDHPGDLGDPFHLGLEDILMEE | 3.57 |
| FPSDHCGDLGDPFHLGLEDILMEE | 3.42 |
| FPSDHYGDLGDPFHLGLEDILMEE | 2.78 |
